This is an account of results in the supplement of paper PMC10598134.

The data set is described as follows: collision cross section of modified peptide (TIMS, N2, iRT-aligned); higher = larger / more extended gas-phase ion. Summed up:
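Collision cross section was derived from the Mason-Schamp equation. Each value averages 1–3 technical replicates of the most abundant feature per charge state, measured on a timsTOF Pro/HT in dda-PASEF mode (nitrogen, ~2.4 mbar) after a 120-min nanoflow C18 gradient at 60 °C. Synthetic peptide pools (~100 fmol/µL in 2% acetonitrile/0.1% formic acid, iRT standard spiked 1:40) were identified with MaxQuant, and 1/K0 was calibrated with three reference ions and aligned run-wise to the median iRT peptide deviation.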

The mark [1] stands for this setting: charge state: 2, modification: Methyl (K).
Where [2] appears, read: charge state: 3, modification: Methyl (K).
The mark [3] stands for this setting: charge state: 2, modification: Succinyl.
The mark [4] stands for this setting: charge state: 3, modification: Succinyl.
The mark [5] stands for this setting: charge state: 2, modification: Trimethyl (K).
Setting [6] is: charge state: 3, modification: Trimethyl (K).
The mark [7] stands for this setting: charge state: 2, modification: hydroxyisobutyryl.
The mark [8] stands for this setting: charge state: 3, modification: hydroxyisobutyryl.
Setting [9] is: charge state: 2, modification: Nitro (Y).
The mark [10] stands for this setting: charge state: 2, modification: Phospho (Y).
[11] abbreviates: charge state: 3, modification: Nitro (Y).
[12] abbreviates: charge state: 3, modification: Phospho (Y).
Setting [13] is: charge state: 3, modification: Dimethyl (K).
Where [14] appears, read: charge state: 2, modification: GlyGly (K).
Where [15] appears, read: charge state: 3, modification: GlyGly (K).
Setting [16] is: charge state: 2, modification: Citrullination (R).
Setting [17] is: charge state: 3, modification: Citrullination (R).
Setting [18] is: charge state: 3, modification: Methyl (R).

± gives the standard deviation.

Turning to “VYIASSSGSTAIKK [_VYIASSSGSTAIK(Methyl (K))K_]”, the collision cross section was determined as 428.78 ± 1.9 Å² under setting [1] and 495.87 ± 3.1 Å² under setting [2].

For the setting “charge state: 2, modification: Propionyl”, “VYIASSSGSTAIKK [_VYIASSSGSTAIK(Propionyl)K_]” returned a collision cross section of 415.66 ± 0.38 Å².

As to “VYIASSSGSTAIKK [_VYIASSSGSTAIK(Succinyl)K_]”, the collision cross section runs as follows: under setting [3], 413.08 ± 1.1 Å²; under setting [4], 508.16 ± 1.6 Å².

Take “VYIASSSGSTAIKK [_VYIASSSGSTAIK(Trimethyl (K))K_]”: the collision cross section reads like this: under setting [5], 434.92 ± 0.58 Å²; under setting [6], 501.36 ± 1.6 Å².

As to “VYIASSSGSTAIKK [_VYIASSSGSTAIK(hydroxyisobutyryl)K_]”, the collision cross section under setting [7] is recorded as 417.04 ± 1.1 Å² and the collision cross section under setting [8] is given as 511.39 ± 2 Å².

On to VYPSSLSK [_VY(Nitro (Y))PSSLSK_], for which the collision cross section under setting [9] is listed as 327.32 ± 0.71 Å².

In turn, VYPSSLSK [_VY(Phospho (Y))PSSLSK_] had a collision cross section under setting [10] of 344.53 ± 0.066 Å².

Take VYSGHQGR [_VY(Nitro (Y))SGHQGR_]: the collision cross section amounted to 327.94 ± 0.59 Å² under setting [9] and 418.62 ± 1.2 Å² under setting [11].

For the substance VYSGHQGR [_VY(Phospho (Y))SGHQGR_], the collision cross section was determined as 330.73 ± 0.068 Å² under setting [10] and 415.14 ± 2.5 Å² under setting [12].

VYSLFLDESR [_VY(Nitro (Y))SLFLDESR_] yielded a collision cross section under setting [9] of 377.85 ± 0.17 Å².

Take VYSLFLDESR [_VY(Phospho (Y))SLFLDESR_]: the collision cross section under setting [10] turned out to be 376.54 ± 1.2 Å².

“VYVGNLGTGAGK [_VY(Nitro (Y))VGNLGTGAGK_]” returned a collision cross section under setting [9] of 354.85 ± 1.5 Å².

Turning to “VYVGNLGTGAGK [_VY(Phospho (Y))VGNLGTGAGK_]”, the collision cross section under setting [10] came out at 364.53 ± 0.064 Å².

In turn, “YADLTEDQLPSCESLK [_Y(Nitro (Y))ADLTEDQLPSCESLK_]” showed a collision cross section under setting [9] of 442.66 ± 0.55 Å².

As to “YADLTEDQLPSCESLK [_Y(Phospho (Y))ADLTEDQLPSCESLK_]”, the collision cross section under setting [10] is given as 458.87 Å².

Substance YEATSVQQK [_Y(Nitro (Y))EATSVQQK_] yielded a collision cross section under setting [9] of 342.71 ± 0.55 Å².

Substance YEATSVQQK [_Y(Phospho (Y))EATSVQQK_] had a collision cross section under setting [10] of 348.75 ± 0.066 Å².

In the case of “YEEIVKEVSTYIK [_YEEIVK(Acetyl (K))EVSTYIK_]”, the collision cross section (charge state: 2, modification: Acetyl (K)) was 431.89 ± 3.1 Å².

The substance “YEEIVKEVSTYIK [_YEEIVK(Dimethyl (K))EVSTYIK_]” displayed a collision cross section under setting [13] of 492.52 Å².

“YEEIVKEVSTYIK [_YEEIVK(Gluratylation)EVSTYIK_]” yielded a collision cross section (charge state: 2, modification: Glutarylation) of 443.96 ± 1.5 Å².

As for “YEEIVKEVSTYIK [_YEEIVK(GlyGly (K))EVSTYIK_]”, the collision cross section reads like this: under setting [14], 459.86 ± 0.94 Å²; under setting [15], 512.47 ± 1.1 Å².

In the case of “YEEIVKEVSTYIK [_YEEIVK(Malonyl)EVSTYIK_]”, the collision cross section (charge state: 2, modification: Malonyl) is 438.59 ± 1.6 Å².

As for “YEEIVKEVSTYIK [_YEEIVK(Methyl (K))EVSTYIK_]”, the collision cross section reads like this: under setting [1], 440.62 ± 1.8 Å²; under setting [2], 492.07 ± 3.2 Å².

As for “YEEIVKEVSTYIK [_YEEIVK(Succinyl)EVSTYIK_]”, under setting [3], the collision cross section turned out to be 438.13 ± 0.83 Å².

“YEEIVKEVSTYIK [_YEEIVK(Trimethyl (K))EVSTYIK_]” came in with a collision cross section under setting [5] of 455.74 ± 0.69 Å² and a collision cross section under setting [6] of 498.32 ± 1.1 Å².

On to “YEEIVKEVSTYIK [_YEEIVK(hydroxyisobutyryl)EVSTYIK_]”, for which the collision cross section under setting [7] worked out at 436.97 ± 5 Å².

YEITEQR [_Y(Nitro (Y))EITEQR_] yielded a collision cross section under setting [9] of 327.03 ± 0.71 Å².

YEITEQR [_Y(Phospho (Y))EITEQR_] showed a collision cross section under setting [10] of 328.08 ± 0.068 Å².

In turn, “YEQEHAAIQDKLFQVAK [_YEQEHAAIQDK(Acetyl (K))LFQVAK_]” came in with a collision cross section (charge state: 3, modification: Acetyl (K)) of 513.78 ± 1.6 Å².

“YEQEHAAIQDKLFQVAK [_YEQEHAAIQDK(Biotin)LFQVAK_]” displayed a collision cross section (charge state: 3, modification: Biotin) of 538 ± 1.6 Å².

Where the note is “charge state: 3, modification: Butyryl”, “YEQEHAAIQDKLFQVAK [_YEQEHAAIQDK(Butyryl)LFQVAK_]” came in with a collision cross section of 517.33 ± 1 Å².

In the case of “YEQEHAAIQDKLFQVAK [_YEQEHAAIQDK(Dimethyl (K))LFQVAK_]”, the collision cross section under setting [13] is 556.37 ± 0.79 Å².

With “YEQEHAAIQDKLFQVAK [_YEQEHAAIQDK(Formyl)LFQVAK_]”, the collision cross section (charge state: 3, modification: Formyl) amounted to 510.23 ± 1.3 Å².

As for “YEQEHAAIQDKLFQVAK [_YEQEHAAIQDK(Gluratylation)LFQVAK_]”, where the note is “charge state: 3, modification: Glutarylation”, the collision cross section is reported as 519.4 ± 1.2 Å².

With “YEQEHAAIQDKLFQVAK [_YEQEHAAIQDK(GlyGly (K))LFQVAK_]”, the collision cross section under setting [15] is reported as 562.29 ± 1.2 Å².

For “YEQEHAAIQDKLFQVAK [_YEQEHAAIQDK(Malonyl)LFQVAK_]”, the collision cross section (charge state: 3, modification: Malonyl) is recorded as 515.74 ± 1.8 Å².

Substance “YEQEHAAIQDKLFQVAK [_YEQEHAAIQDK(Methyl (K))LFQVAK_]” registered a collision cross section under setting [2] of 557.9 ± 0.6 Å².

“YEQEHAAIQDKLFQVAK [_YEQEHAAIQDK(Succinyl)LFQVAK_]” registered a collision cross section under setting [4] of 518.31 ± 1.6 Å².

“YEQEHAAIQDKLFQVAK [_YEQEHAAIQDK(Trimethyl (K))LFQVAK_]”: the collision cross section under setting [6] came out at 561.55 ± 0.91 Å².

“YEQEHAAIQDKLFQVAK [_YEQEHAAIQDK(hydroxyisobutyryl)LFQVAK_]”: the collision cross section under setting [8] was found to be 519.87 ± 2 Å².

For the substance “YGRGQLNYPLPDFSK [_YGR(Citrullination (R))GQLNYPLPDFSK_]”, the collision cross section was 439.93 ± 0.95 Å² under setting [16] and 492.79 Å² under setting [17].

Under setting [18], “YGRGQLNYPLPDFSK [_YGR(Methyl (R))GQLNYPLPDFSK_]” showed a collision cross section of 496.04 ± 0.79 Å².

For the substance YHEDIFGLTLR [_Y(Nitro (Y))HEDIFGLTLR_], the collision cross section was found to be 391.96 ± 0.8 Å² under setting [9] and 465.92 ± 0.23 Å² under setting [11].

Regarding “YIDNQVVSTKGER [_YIDNQVVST(HexNAc (ST))KGER_]”, the collision cross section runs as follows: (charge state: 2, modification: HexNAc (ST)) 428.63 ± 0.14 Å²; (charge state: 3, modification: HexNAc (ST)) 510.94 ± 0.18 Å².

With “YIEIYVQKVNPSR [_YIEIYVQK(Dimethyl (K))VNPSR_]”, the collision cross section runs as follows: (charge state: 2, modification: Dimethyl (K)) 441.4 ± 1.2 Å²; under setting [13], 503.81 ± 1.6 Å².

For the substance “YIEIYVQKVNPSR [_YIEIYVQK(GlyGly (K))VNPSR_]”, the collision cross section is 453.07 ± 1.4 Å² under setting [14] and 515.19 ± 0.35 Å² under setting [15].

Consider “YIEIYVQKVNPSR [_YIEIYVQK(Methyl (K))VNPSR_]”, for which the collision cross section reads like this: under setting [1], 439.54 ± 1.7 Å²; under setting [2], 505.56 ± 3.7 Å².

On to “YIEIYVQKVNPSR [_YIEIYVQK(Succinyl)VNPSR_]”, for which the collision cross section under setting [3] worked out at 436.15 Å².

As to “YIEIYVQKVNPSR [_YIEIYVQK(Trimethyl (K))VNPSR_]”, the collision cross section under setting [5] was 446.57 Å² and the collision cross section under setting [6] was 499.16 ± 1.6 Å².

On to YIGTGHADTTK [_Y(Nitro (Y))IGTGHADTTK_], for which the collision cross section came out at 358.04 ± 1.2 Å² under setting [9] and 452.29 ± 0.83 Å² under setting [11].

In turn, “YIGTGHADTTK [_Y(Phospho (Y))IGTGHADTTK_]” displayed a collision cross section under setting [10] of 372.65 ± 0.75 Å².

YILIPASQQPK [_Y(Nitro (Y))ILIPASQQPK_] displayed a collision cross section under setting [9] of 382.12 ± 0.17 Å².

As to “YILIPASQQPK [_Y(Phospho (Y))ILIPASQQPK_]”, the collision cross section under setting [10] turned out to be 405.41 ± 0.64 Å².

Regarding YLHDESGLNR [_Y(Nitro (Y))LHDESGLNR_], the collision cross section reads like this: under setting [9], 366.66 ± 0.46 Å²; under setting [11], 429.41 ± 1.1 Å².

Take YLHDESGLNR [_Y(Phospho (Y))LHDESGLNR_]: the collision cross section is, setting by setting: under setting [10], 372.11 ± 0.77 Å²; under setting [12], 460.83 ± 0.1 Å².

As to YRGDYDR [_YR(Citrullination (R))GDYDR_], the collision cross section under setting [16] was 333.6 ± 1.8 Å².

Consider YRGDYDR [_YR(Methyl (R))GDYDR_], for which the collision cross section (charge state: 2, modification: Methyl (R)) stood at 328.99 ± 0.25 Å² and the collision cross section under setting [18] is on record as 408.46 ± 0.36 Å².

Under setting [16], “YSRGAGLGFSTAPNK [_YSR(Citrullination (R))GAGLGFSTAPNK_]” yielded a collision cross section of 397.83 ± 0.22 Å².

Substance “YSRGAGLGFSTAPNK [_YSR(Methyl (R))GAGLGFSTAPNK_]” had a collision cross section under setting [18] of 478.19 ± 2.5 Å².

“YSSNLGNFNYEQRGAFR [_YSSNLGNFNYEQR(Citrullination (R))GAFR_]”: the collision cross section under setting [17] was 530.01 Å².

For the substance “YSSNLGNFNYEQRGAFR [_YSSNLGNFNYEQR(Methyl (R))GAFR_]”, the collision cross section under setting [18] is recorded as 534.33 ± 1.9 Å².

Regarding “YSSSSIPEPFGSRGSPR [_YSSSSIPEPFGSR(Citrullination (R))GSPR_]”, the collision cross section was determined as 439.28 ± 0.2 Å² under setting [16] and 523.88 Å² under setting [17].

Turning to “YSSSSIPEPFGSRGSPR [_YSSSSIPEPFGSR(Methyl (R))GSPR_]”, the collision cross section under setting [18] is 522.38 ± 1.8 Å².
